Experimental findings from publication PMC4965137, “Temporal Shift of Circadian-Mediated Gene Expression and Carbon Fixation Contributes to Biomass Heterosis in Maize Hybrids” are described below.

Common to all, as to details: protein: recombinant; tags: MBP (pMAL-C2); label: 32P 5' end; blunt
For data set [1], the target named is rZmCCA1a (Zea mays B73, UniProt B6SPA3 129-718). The experiment in a line: EMSA; 1 pmol protein; 25 mM HEPES-KOH pH 7.5, 75 mM KCl, 2.5 mM DTT, 10% glycerol, 1.25 ng poly-dIdC; 20 fmol probe, 0.5-2 pmol protein; 10 min room temperature then 20 min on ice with probe; 5% native PAGE. (In general: Mobility shift assays separate free from complexed probe on a gel.)
Sequence of rZmCCA1a (B6SPA3 entry or part of it): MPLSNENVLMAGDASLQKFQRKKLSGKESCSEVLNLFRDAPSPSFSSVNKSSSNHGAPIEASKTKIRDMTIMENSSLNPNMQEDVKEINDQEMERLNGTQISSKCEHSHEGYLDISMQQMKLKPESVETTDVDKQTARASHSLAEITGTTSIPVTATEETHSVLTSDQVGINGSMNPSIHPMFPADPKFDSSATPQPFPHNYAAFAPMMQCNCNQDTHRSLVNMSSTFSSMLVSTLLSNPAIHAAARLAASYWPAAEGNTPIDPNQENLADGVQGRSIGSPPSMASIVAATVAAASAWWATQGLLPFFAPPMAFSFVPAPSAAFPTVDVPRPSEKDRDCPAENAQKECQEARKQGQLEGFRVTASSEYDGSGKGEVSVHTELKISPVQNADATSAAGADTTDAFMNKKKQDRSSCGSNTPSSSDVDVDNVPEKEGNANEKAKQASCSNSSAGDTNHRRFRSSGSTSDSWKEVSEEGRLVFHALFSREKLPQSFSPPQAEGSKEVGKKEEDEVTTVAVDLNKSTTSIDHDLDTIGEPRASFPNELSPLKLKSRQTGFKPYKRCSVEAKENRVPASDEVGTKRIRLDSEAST

Data set [2] addresses T1, rZmCCA1b (Zea mays B73, UniProt K7U156 1-720). In words: EMSA; self-competed by 25-100X unlabeled DNA; 25 mM HEPES-KOH pH 7.5, 75 mM KCl, 2.5 mM DTT, 10% glycerol, 1.25 ng poly-dIdC; 20 fmol probe, 0.5-2 pmol protein; 10 min room temperature then 20 min on ice with probe; 5% native PAGE.
Data set [3] has as its target T1, rZmCCA1b. The experiment in a line: EMSA; 25 mM HEPES-KOH pH 7.5, 75 mM KCl, 2.5 mM DTT, 10% glycerol, 1.25 ng poly-dIdC; 20 fmol probe, 0.5-2 pmol protein; 10 min room temperature then 20 min on ice with probe; 5% native PAGE.

T1 sequence (K7U156 entry or part of it): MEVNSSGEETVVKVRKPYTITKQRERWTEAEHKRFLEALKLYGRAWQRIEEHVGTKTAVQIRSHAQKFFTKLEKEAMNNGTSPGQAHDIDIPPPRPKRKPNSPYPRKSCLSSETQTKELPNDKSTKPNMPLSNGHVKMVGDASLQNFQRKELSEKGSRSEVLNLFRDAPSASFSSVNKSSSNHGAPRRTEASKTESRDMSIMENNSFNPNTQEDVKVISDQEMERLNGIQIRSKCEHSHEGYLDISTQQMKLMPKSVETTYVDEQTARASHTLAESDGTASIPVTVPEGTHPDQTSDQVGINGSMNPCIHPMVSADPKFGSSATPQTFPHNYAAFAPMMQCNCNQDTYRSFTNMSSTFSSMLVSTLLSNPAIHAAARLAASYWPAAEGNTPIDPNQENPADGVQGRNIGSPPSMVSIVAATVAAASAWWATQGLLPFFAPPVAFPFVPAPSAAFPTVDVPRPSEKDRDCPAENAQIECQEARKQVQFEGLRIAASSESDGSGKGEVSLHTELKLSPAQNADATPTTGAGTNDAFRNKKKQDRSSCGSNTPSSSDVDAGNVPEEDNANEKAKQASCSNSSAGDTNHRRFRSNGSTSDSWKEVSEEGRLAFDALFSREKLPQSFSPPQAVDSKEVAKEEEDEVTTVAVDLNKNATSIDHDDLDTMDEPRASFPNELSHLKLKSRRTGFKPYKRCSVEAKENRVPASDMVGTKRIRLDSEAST

B1: gi1 promoter probe (dsDNA)
DNA 1: GCATCGCGGAAAAAATCTTTTTCTCGCC
DNA 2: GGCGAGAAAAAGATTTTTTCCGCGATGC
As for B1, the binding result is recorded as “no binding” in data set [1] and “binds” in data set [2].

B2: ZmPRR59 promoter probe (dsDNA)
DNA 1: CTCTTTAAAAAAAAATCTTCATTTAAGG
DNA 2: CCTTAAATGAAGATTTTTTTTTAAAGAG
For B2, the binding result is on record as “no binding” in data set [1] and “binds” in data set [2].

B3: GRMZM2G129513 promoter probe (dsDNA)
DNA 1: ATTAAATATAAAAATATCTAAATTCATAA
DNA 2: TTATGAATTTAGATATTTTTATATTTAAT
With B3, the binding result in data set [3] is given as “binds”.

B4: GRMZM2G033885 promoter probe (dsDNA)
DNA 1: TCAGCACTGAAAAATATCTGAGGTTGAAA
DNA 2: TTTCAACCTCAGATATTTTTCAGTGCTGA
In the case of B4, the binding result in data set [3] is on record as “binds”.

B5: ZmTOC1a promoter probe (dsDNA)
DNA 1: GGCGAGTTTTAGATATTTTCACCCGCTCC
DNA 2: GGAGCGGGTGAAAATATCTAAAACTCGCC
For B5, the figures for the binding result in data set [1] and in data set [2] were “no binding” and “binds”, respectively.
